Results on one substance are retold here after IntAct's records for PubMed 18502764.

The experiment has as its target ehd2_mouse Ehd2 (UniProt Q8BH64).
Sequence of UniProt Q8BH64 (Q8BH64 whole entry): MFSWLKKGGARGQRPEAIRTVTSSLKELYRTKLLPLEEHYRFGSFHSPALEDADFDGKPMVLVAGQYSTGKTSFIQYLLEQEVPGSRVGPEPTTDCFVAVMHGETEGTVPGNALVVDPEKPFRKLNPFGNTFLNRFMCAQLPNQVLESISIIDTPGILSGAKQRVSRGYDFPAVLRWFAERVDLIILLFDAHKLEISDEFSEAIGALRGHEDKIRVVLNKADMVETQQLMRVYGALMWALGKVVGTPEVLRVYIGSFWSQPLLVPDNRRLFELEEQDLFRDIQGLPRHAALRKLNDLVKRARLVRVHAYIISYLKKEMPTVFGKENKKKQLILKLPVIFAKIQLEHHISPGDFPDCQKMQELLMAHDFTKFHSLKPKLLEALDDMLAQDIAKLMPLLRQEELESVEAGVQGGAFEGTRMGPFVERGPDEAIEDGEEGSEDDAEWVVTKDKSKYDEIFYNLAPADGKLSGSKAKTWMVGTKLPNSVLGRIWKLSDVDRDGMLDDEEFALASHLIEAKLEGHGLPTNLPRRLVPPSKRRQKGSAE

For the substance Myoferlin (Homo sapiens), Q9NZM1 N238C, the “effect of a mutation on the interaction” value was “decreasing interaction”.
